Experimental data taken from paper PMC4909229, “Characterization of Staphylococcus aureus Primosomal DnaD Protein: Highly Conserved C-Terminal Region Is Crucial for ssDNA and PriA Helicase Binding but Not for DnaA Protein-Binding and Self-Tetrameri”.

Experiments:
[1] = target: T1, SaDnaD1-195 (Staphylococcus aureus subsp. aureus ED98, UniProt Q9EUT0 1-195, del196-228); test: tryptophan fluorescence quenching; DNA:protein ratio 1; EMSA: 20 mM Tris-HCl pH 8.0, 100 mM NaCl, 25 C, 30 min, 1.7 nM DNA, gel at 4 C in TBE; fluorescence: 20 mM Tris-HCl pH 8.0, 200 or 500 mM NaCl, 0.1 uM tetramer; details: protein: recombinant; tags: C-terminal His tag (pET21e); chain copies: 4; label: 5'-32P (EMSA); unlabeled in fluorescence titration
T1 sequence: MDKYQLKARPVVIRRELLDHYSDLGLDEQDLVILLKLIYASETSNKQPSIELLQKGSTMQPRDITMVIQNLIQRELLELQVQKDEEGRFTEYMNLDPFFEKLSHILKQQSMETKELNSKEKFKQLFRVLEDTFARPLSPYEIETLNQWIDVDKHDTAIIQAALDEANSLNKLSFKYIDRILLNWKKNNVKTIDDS

[2] = target: T2, SaDnaD1-204 (Staphylococcus aureus subsp. aureus ED98, UniProt Q9EUT0 1-204, del205-228); test: as above; details: protein: recombinant; tags: C-terminal His tag (pET21e); chain copies: 4; label: 5'-32P (EMSA); unlabeled in fluorescence titration
T2 sequence: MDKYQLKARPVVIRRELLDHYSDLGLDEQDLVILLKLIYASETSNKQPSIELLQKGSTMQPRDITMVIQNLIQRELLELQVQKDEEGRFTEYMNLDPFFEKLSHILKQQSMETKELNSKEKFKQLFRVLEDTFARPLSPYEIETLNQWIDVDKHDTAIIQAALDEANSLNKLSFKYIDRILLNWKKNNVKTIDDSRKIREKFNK

[3] = target: T3, SaDnaD1-200 (Staphylococcus aureus subsp. aureus ED98, UniProt Q9EUT0 1-200, del201-228); test: as above; details: protein: recombinant; tags: C-terminal His tag (pET21e); chain copies: 4; label: 5'-32P (EMSA); unlabeled in fluorescence titration
T3 sequence: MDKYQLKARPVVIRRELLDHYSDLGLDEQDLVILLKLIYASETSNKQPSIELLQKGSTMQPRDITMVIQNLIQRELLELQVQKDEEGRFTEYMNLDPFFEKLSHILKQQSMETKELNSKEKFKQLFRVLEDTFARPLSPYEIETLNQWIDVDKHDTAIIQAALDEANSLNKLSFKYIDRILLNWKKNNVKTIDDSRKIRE

[4] = target: T1, SaDnaD1-195; test: EMSA; EMSA: 20 mM Tris-HCl pH 8.0, 100 mM NaCl, 25 C, 30 min, 1.7 nM DNA, gel at 4 C in TBE; fluorescence: 20 mM Tris-HCl pH 8.0, 200 or 500 mM NaCl, 0.1 uM tetramer; details: protein: recombinant; tags: C-terminal His tag (pET21e); chain copies: 4; label: 5'-32P
[5] = target: T3, SaDnaD1-200; test: as above; details: protein: recombinant; tags: C-terminal His tag (pET21e); chain copies: 4; label: 5'-32P

B1: dT65 (ssDNA)
DNA: TTTTTTTTTTTTTTTTTTTTTTTTTTTTTTTTTTTTTTTTTTTTTTTTTTTTTTTTTTTTTTTTT
For B1, the binding signal [1] was < 5 % quenching, the binding signal [2] was ~20 % quenching and the binding signal [3] was < 10 % quenching.

TTTTTTTTTTTTTTTTTTTTTTTTTTTTTTTTTTTTTTTT (ssDNA) [dT40]: no binding [4]; no binding [5].
